Experimental data: patent publication US20220127372A1

B1: GPC3-SL-mCD3ε (protein)
chain: EVQLVQSGAEVKKPGASVKVSCKASGYTFSDYEMHWVRQAPGQGLEWMGAIHPGSGDTAYNQRFKGRVTITADKSTSTAYMELSSLRSEDTAVYYCARFYSYAYWGQGTLVTVSAGGGGSGGGGSGGGGSDIVMTQTPLSLPVTPGEPASISCRSSQSLVHSNGNTYLQWYLQKPGQSPQLLIYKVSNRFSGVPDRFSGSGSGTDFTLKISRVEAEDVGVYYCSQSIYVPYTFGQGTKLEIKRAAAGGGGSGGGGSGGGGSLEDDAENIEYKVSISGTSVELTCPLDSDENLKWEKNGQELPQKHDKHLVLQDFSEVEDSGYYVCYTPASNKNTYLYLKARVCEYCVEVDLTAVAIIIIVDICITLGLLMVIYYWSKNRKAKAKPVTRGTGAGSRPRGQNKERPPPVPNPDYEPIRKGQRDLYSGLNQRAV
B2: GPC3-SL-mCD3ε-F2A-mIL7-P2A-mCCL21b (protein)
chain: B1 chain
B3: GPC3-SL-mCD3ε-F2A-mCCL21b (protein)
chain: B1 chain
B4: GPC3-SL-mCD3ε-F2A-mRunx3 (protein)
chain: B1 chain
B5: GPC3-SL-mCD3ε-NFAT-mIL12 (protein)
chain: B1 chain

Target: mouse GPC3 protein (mouse) (UniProt Q8CFZ4)
UniProt Q8CFZ4, sequence (Q8CFZ4 25-579 limits assumed): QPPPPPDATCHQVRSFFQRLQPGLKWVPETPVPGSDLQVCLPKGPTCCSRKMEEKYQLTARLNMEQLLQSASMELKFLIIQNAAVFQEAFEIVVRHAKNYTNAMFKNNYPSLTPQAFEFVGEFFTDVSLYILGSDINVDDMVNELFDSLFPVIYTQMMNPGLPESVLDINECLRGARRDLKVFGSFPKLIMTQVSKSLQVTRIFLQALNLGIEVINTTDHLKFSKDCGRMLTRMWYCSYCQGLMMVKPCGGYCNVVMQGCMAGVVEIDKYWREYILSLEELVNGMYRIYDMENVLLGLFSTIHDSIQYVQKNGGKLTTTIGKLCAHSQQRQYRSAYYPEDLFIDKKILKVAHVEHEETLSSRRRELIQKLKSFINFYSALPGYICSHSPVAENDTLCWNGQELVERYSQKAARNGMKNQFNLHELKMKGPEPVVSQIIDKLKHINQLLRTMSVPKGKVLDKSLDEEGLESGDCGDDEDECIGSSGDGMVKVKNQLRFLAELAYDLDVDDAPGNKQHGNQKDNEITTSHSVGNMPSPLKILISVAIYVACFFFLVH
Assay: cell-based or functional assay

Binder | cytotoxicity to Hepa 1-6 GPC3 cells, effector target ratio 1:1, 18 h (CytoTox 96) [%]
B1 | 70.7
B2 | 73.4
B3 | 73.2
B4 | 82.2
B5 | 91.5
